Measured values: patent publication EP2155781B1
No end group written: not given here.

Key:
[1] = target: adrenomedullin receptors in the lungs of dogs (binding profile of the AM1 receptor, CRLR+RAMP2) (dog); assay: displacement of iodine-marked hAM in dog lungs
[2] = target: adrenomedullin receptors in the lungs of dogs (binding profile of the AM1 receptor, CRLR+RAMP2) (dog); assay: cell-based or functional assay

Work on “linear human adrenomedullin hAM(1-52) (peptide)” yielded an IC50 [1] of 7.1 nM.

“unlabelled rAM(1-50) (from UniProt P43145 94-143) (peptide)” was tested, and the mean single-pass pulmonary extraction of 125I-rAM(1-50) in dogs after administration of unlabelled rAM(1-50) (100 nmol) [2] was 21.9%.

In the case of “CGRP (Phoenix Pharmaceuticals) (peptide)”, the mean single-pass pulmonary extraction of 125I-rAM(1-50) in dogs after CGRP (100 nmol) [2] is reported as 40.6% and the mean single-pass pulmonary extraction of 125I-rAM(1-50) in dogs, control before CGRP [2] is reported as 44.6%.

In the case of “125I-rAM(1-50), 125I labelled rat adrenomedullin (from UniProt P43145 94-143) (peptide)”, the mean single-pass pulmonary extraction of 125I-rAM(1-50) in dogs in vivo (indicator dilution), baseline [2] is reported as 36.4%.

Work on “human adrenomedullin hAM(1-52), cyclic (peptide)” yielded an IC50 [1] of 0.055 nM.

“hCGRP (from UniProt P06881 83-119) (peptide)” was tested, and the IC50 [1] was 440 nM.

“N-terminal acetylated human adrenomedullin (peptide)” showed an IC50 [1] of 0.041 nM.

TVQKLAHQIYQFTDKDKDNVAPRSKISPQGY-NH2 [hAM(22-52)] gave a mean single-pass pulmonary extraction of 125I-rAM(1-50) in dogs after hAM(22-52) (100 nmol) [2] of 31.4%, a mean single-pass pulmonary extraction of 125I-rAM(1-50) in dogs before hAM(22-52) [2] of 40% and an IC50 [1] of 810 nM.

TQAQLLRVGCVLGTCQVQNLSHRLWQLMGPAGRQDSAPVDPSSPHSY (peptide, UniProt Q7Z4H4 101-147, looked up) [hAM2] gave an IC50 [1] of 480 nM.

With QVQNLSHRLWQLMGPAGRQDSAPVDPSSPHSY (peptide, UniProt Q7Z4H4 116-147, looked up, ends and bridges not checked) [hAM2(16-47)] the IC50 [1] was 980 nM.

For SFGCRFGTCTVQKLAHQIYQFTDKDKDNVAPRSKISPQGY-NH2 (ends and bridges not checked) [hAM(13-52)], the IC50 [1] was 34 nM.
